Patent US20210079088A1 (published 2021)
Substitutions are numbered along the chain they refer to.

T1: soluble human IL-4Rα (sIL-4Rα; PEPRO TECH, Catalog Number: 200-04R) (human, UniProt P24394 26-232)
T1 construct: Bought protein; also called shIL-4Rα; soluble hIL-4 Rα
T1 sequence: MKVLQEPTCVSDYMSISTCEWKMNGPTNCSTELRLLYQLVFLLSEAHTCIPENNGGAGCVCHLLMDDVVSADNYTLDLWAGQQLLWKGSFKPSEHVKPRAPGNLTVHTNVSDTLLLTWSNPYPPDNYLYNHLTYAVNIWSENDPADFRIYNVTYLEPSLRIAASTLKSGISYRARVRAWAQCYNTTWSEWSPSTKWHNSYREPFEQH

B1: L1021H1029 (antibody, V domains shown)
VH: EVQLVESGGGLVQPGGSLRLSCAASGFTFSRNAMFWVRQAPGKGLEWVSGIGTGGATSYADSVKGRFTISRDNAKNSLYLQMNSLRAEDMAVYYCARGRYYFPWWGQGTLVTVSS
VL: EIVLTQSPGTLSLSPGERATLSCRASQSVSSSYLAWYQQKPGQAPRLLIFGASSRAPGIPDRFSGSGSGTDFTLTISRLEPEDFAVYYCQQYDHSAGWTFGQGTKVEIK
B2: L1021H1031 (antibody, V domains shown)
VH: B1 VH with M90T, P103D, W104Y
VL: B1 VL
B3: L1024H1007 (antibody, V domains shown)
VH: B1 VH with E6Q, Q13H, A24G, P103D, W104Y
VL: B1 VL with S31N
B4: L1024H1031 (antibody, V domains shown)
VH: B1 VH with M90T, P103D, W104Y
VL: B1 VL with S31N
B5: L1024H1000 (antibody, V domains shown)
VH: B1 VH with E6Q, Q13H, A24G, S58N, P103D, W104Y
VL: B1 VL with S31N
B6: L1022H1000 (antibody, V domains shown)
VH: B1 VH with E6Q, Q13H, A24G, S58N, P103D, W104Y
VL: B1 VL with S31N, F50Y, P57T

Each binder was assayed against T1, soluble human IL-4Rα (sIL-4Rα; PEPRO …) (assay: ELISA, coated sIL-4Rα, culture supernatant).
Protocol: Sample to be tested: For each antibody of the present invention, 10 μl and 2 μl of the culture supernatant of Expi293 cells expressing the antibody after transient transfection (the medium was Expi293 Expression Medium, Invitrogen, Catalog Number: A1435102; suspension culture was performed for 4 days at 100 rpm in a 8% CO2 incubator) were respectively added to 990 μl and 998 μl of PBS to prepare antibody samples to be tested of 1:100 and 1:500 dilutions.
100 μl of 100 μg/ml sIL-4Rα solution was added to 9.90 ml of PBS, mixed up and down, and then an antigen coating buffer of 1.0 μg/ml was obtained. The prepared antigen coating buffer was added to a 96-well ELISA plate (Corning) with a volume of 100 μl per well. The 96-well ELISA plate was incubated overnight in a refrigerator at 4° C. On the next day, the solution therein was discarded, and PBS containing 2% BSA was added to the 96-well ELISA plate row by row with a volume of 300 μl per well. The 96-well ELISA plate was incubated for 2 hours in a refrigerator at 4° C. Then the PBS containing 2% BSA was discarded and the plate was washed 3 times with PBST. Diluted antibodies to be tested were sequentially added to the corresponding wells, while the normal cell culture supernatants, as negative control samples, were added too. Three duplicate wells were made for each sample with a volume of 100 μl per well. The ELISA plate was wrapped with preservative film (or covered) and incubated for 1 h at 10° C. in a constant temperature incubator. Subsequently, the 96-well ELISA plate was taken out, and the solution therein was discarded. After washing with PBST for 3 times, TMB solution (Solarbio, Catalog Number: PR1200) was added to the 96-well ELISA plate row by row with a volume of 100 μl per well. The 96-well ELISA plate was placed at room temperature for 5 minutes, and 2 M H2SO4 solution was added in immediately to terminate the reaction. The 96-well ELISA plate was placed in flexstation 3 (Molecular Devices), the values of OD450 were read, and the data were collected, calculated and analyzed. Results were expressed relative to the affinity of control antibody 1.
With B1 the “OD450/OD450 Control antibody 1” value was 1 ratio to control antibody 1.
For B2, the “OD450/OD450 Control antibody 1” value was 0.9 ratio to control antibody 1.
In the case of B3, the “OD450/OD450 Control antibody 1” value is reported as 0.23 ratio to control antibody 1.
With B4 the “OD450/OD450 Control antibody 1” value was 0.9 ratio to control antibody 1.
For B5, the “OD450/OD450 Control antibody 1” value was 0.69 ratio to control antibody 1.
For B6, the “OD450/OD450 Control antibody 1” value was 0.16 ratio to control antibody 1.
